The target in assay [1] is LEDGF IBD fused to Gal4 transcription activation domain (WT prey). Put plainly: yeast two-hybrid (β-galactosidase reporter). The conditions noted are these: S. cerevisiae Y187; quadruplicate measurements; read off a plot.
For assay [2], the target named is KKK HIV-1 IN (D6K/E10K/E13K) fused to the DNA binding domain of Gal4 (HIV-1). The assay can be described thus: two-hybrid; Gal4 DBD-IN bait and Gal4 AD-LEDGF IBD prey in S. cerevisiae Y187; β-galactosidase activity relative to WT bait/WT prey (100%); background: WT IN with empty prey vector.
In assay [3] the target is Full-length HIV-1 IN fused to the DNA binding domain of Gal4 (WT bait) (HIV-1). The assay can be described thus: two-hybrid.

As to “Full-length HIV-1 IN fused to the DNA binding domain of Gal4 (WT bait) E10K; E13K”, the percent of parent in assay [1] is 1.3 % of WT/WT.

Consider “EEE LEDGF IBD (K401E/K402E/R405E) fused to Gal4 transcription activation domain (domain or fragment)”, for which the β-galactosidase activity relative to WT-WT in assay [2] was 40 % of WT-WT.

Take “Full-length HIV-1 IN fused to the DNA binding domain of Gal4 (WT bait) D6K; E10K; E13K”: the percent of parent in assay [1] is 1.2 % of WT/WT.

Take “AAA LEDGF IBD (K401A/K402A/R405A) fused to Gal4 transcription activation domain (domain or fragment)”: the binding relative to WT (β-galactosidase activity) in assay [3] was 5 % of WT.

Values taken from article PMC2606027.
